Where a chain is given by its changes, count along the chain named. Names may count otherwise.
B1: R662C: TP-DNAP1 variant (protein)
chain: MDYKDKALNDLRNVYADFDSLPLDFRQILIKDRATLLQKEDVEKKILERQEDAKKYAEYLKQSEIPERISLPNIKRHKGVSISFEETSEDMVLEPRPFIFDGLNIRCFRRETIFSLKNKILNMVKESSSFKNVSRQSVSFMYFKIFNKGKVIASTKSVNIYEDKIDERLEDLCNNFDDVLKKIIDVTYGYESLFVSETYSYVIFYAKSIYFPQPRCVNNWGNNIPNILTFDSFKLFTANKNNVSCIKQCSRFLWQKDFNTLEEMIEYKNGNICIVTPQLHINDVRDIKSFNDIRLYSESPIKTFSVIDNTITYLFYFKEHLGVIFNITKSRHDRRVTKFSPLSKFSDVKNITVCFDIESYFDPEKESNQVNIPFICCASIIYNKVIGNIVDFEGRDCVAQMIEYVVDICGELNISSVELIAHNGGGYDFHYILSSMYNPAAIKNILIRNNSFISFNFAHDGVKFSVKDSYSFLLCSLANASKAFLNEETFKKTDFPHHDLKTADDLYKVYKEWSSVNTEINHVVEKEKLLITSEHIVNFTKNDKSKTLIEWSKDYCRNDVLVLSKVWLEFKNAVEDIFNCELVDQTMTLAGLSYKLFQANMPFDVELRHPNKEDYFNMREALIGGRCISVNGIYKDVLCLDVKSLYPASMAFYDQPYGSFKCVSSRPKDELGIYYVRVTPNRNNKSNFFPIRSHNKITYNNFEESTYIAWYTNVDIDIGLSEGHNIEYIPFDSYGNIGYSWSKKGKIFEKYIKDVLYKLKIKYEKQNNKVKRNVIKIIMNSLWGKFAQKWVNFEYFIKSEDDIDFESEEAYKIWDTDFMLIKKIKESTYSSKPIQNGVFTLSWARYHMKSIWDAGAKEGAECIYSDTDSIFVHKEHFKKNAKFMLNGLKVPIIGSEVGQLELECEFDKLLCAGKKQYMGFYTYFQDGKPCIKEKKRFKGIPSNYIIPELYAHLLSGADKEAKIQFLKFRREWGSVKGYIENKTVKAT
B2: N683A: TP-DNAP1 variant (protein)
chain: B1 chain with C662R, N683A
B3: L295Q: TP-DNAP1 variant (protein)
chain: B1 chain with L295Q, C662R
B4: R677Q: TP-DNAP1 variant (protein)
chain: B1 chain with C662R, R677Q
B5: R682P: TP-DNAP1 variant (protein)
chain: B1 chain with C662R, R682P
B6: N681F: TP-DNAP1 variant (protein)
chain: B1 chain with C662R, N681F
B7: N684D: TP-DNAP1 variant (protein)
chain: B1 chain with C662R, N684D
B8: I673V, E703D: TP-DNAP1 variant (protein)
chain: B1 chain with C662R, I673V, E703D
B9: N683T: TP-DNAP1 variant (protein)
chain: B1 chain with C662R, N683T
B10: R692F: TP-DNAP1 variant (protein)
chain: B1 chain with C662R, R692F
B11: Y296K: TP-DNAP1 variant (protein)
chain: B1 chain with Y296K, C662R
B12: Y675H: TP-DNAP1 variant (protein)
chain: B1 chain with C662R, Y675H
B13: E670M, S693G: TP-DNAP1 variant (protein)
chain: B1 chain with C662R, E670M, S693G
B14: N687G: TP-DNAP1 variant (protein)
chain: B1 chain with C662R, N687G
B15: D669G, T698M: TP-DNAP1 variant (protein)
chain: B1 chain with C662R, D669G, T698M
B16: T679E: TP-DNAP1 variant (protein)
chain: B1 chain with C662R, T679E
B17: R692C: TP-DNAP1 variant (protein)
chain: B1 chain with C662R, R692C
B18: N681Q, R692I: TP-DNAP1 variant (protein)
chain: B1 chain with C662R, N681Q, R692I
B19: T679R: TP-DNAP1 variant (protein)
chain: B1 chain with C662R, T679R
B20: T679Q: TP-DNAP1 variant (protein)
chain: B1 chain with C662R, T679Q
B21: N683H: TP-DNAP1 variant (protein)
chain: B1 chain with C662R, N683H
B22: Y675L: TP-DNAP1 variant (protein)
chain: B1 chain with C662R, Y675L
B23: R692K: TP-DNAP1 variant (protein)
chain: B1 chain with C662R, R692K
B24: R677S: TP-DNAP1 variant (protein)
chain: B1 chain with C662R, R677S
B25: R677L: TP-DNAP1 variant (protein)
chain: B1 chain with C662R, R677L
B26: R682D: TP-DNAP1 variant (protein)
chain: B1 chain with C662R, R682D
B27: T679A: TP-DNAP1 variant (protein)
chain: B1 chain with C662R, T679A
B28: R677M: TP-DNAP1 variant (protein)
chain: B1 chain with C662R, R677M
B29: R692I: TP-DNAP1 variant (protein)
chain: B1 chain with C662R, R692I

System: p1
Assay: p1 copy number by p1-encoded mKate2 fluorescence
Assay type: cell-based, S. cerevisiae
Settings: OR-Y24, measured in triplicate
Procedure: A calibration curve was established to correlate p1 copy number, determined via quantitative PCR (qPCR), with fluorescence of p1-encoded mKate2 (Table 1). Five TP-DNAP1 variants representing a wide range of copy numbers were transformed into ORY24 and passaged until w.t. p1 was displaced. The five OR-Y24 strains were grown to saturation, diluted 1:10,000 to mimic p1 fluctuation tests, and grown in triplicate 100 μL cultures and duplicate 40 mL cultures. 100 μL saturated cultures were subject to fluorescence measurement of mKate2 (ex/em=561 nm/620 nm, bandwidth=15 nm) on a flow cytometer (Invitrogen Attune NxT). Whole-cell DNA extracts were prepared from 40 mL cultures and used as templates for qPCR measurement of p1-encoded leu2 (Q180*), as described previously (Ravikumar et al., 2014). p1-encoded LEU2 was PCR amplified with qPCR-Leu2F and qPCR Leu2R; and genomic LEU3 was PCR amplified with qPCR-Leu3F and qPCR-Leu3R using SyBR Green (Fisher Scientific) master mix.
To assay p1 copy number for large-scale p1 fluctuation tests, additional replicates of OR-Y24 strains were grown from the 1:10,000 dilution in triplicate and saturated cultures were subject to fluorescence measurement via flow cytometry. Fluorescence measurements were converted to copy number with the linear calibration curve.
To assay relative p1 copy number for small-scale p1 fluctuation tests, an additional 200 μL culture of OR-Y24 strains were grown from the 1:10,000 dilution. 200 μL saturated cultures were subject to an OD600 measurement and fluorescence measurement of mKate2 (ex/em=588 nm/633 nm), using a microplate reader (TECAN Infinite M200 PRO). A linear relationship was assumed between p1 copy number and OD600-normalized mKate2 fluorescence. Copy numbers were calculated from normalization to a w.t. TP-DNAP1 control.
For a few large-scale p1 fluctuation tests, p1 copy number was assayed by the method of small scale p1 fluctuation tests (i.e. microplate reader measurement). For these experiments, mutant TP-DNAP1 p1 copy numbers were calculated by normalization to a w.t. TP-DNAP1 control. The copy number of this control was assumed to be the average w.t. TP-DNAP1 copy number from all large-scale p1 fluctuation tests that used flow cytometry measurements.
TP-DNAP1 plasmids were isolated from these strains and subject to Sanger sequencing. 210 unique variants were identified and the corresponding plasmids were re-transformed into OR-Y24. Transformed strains were passaged in SC-UH until w.t. p1 was displaced, and subject to p1 copy number measurement in triplicate. Four high copy variants were directly subject to qPCR measurements for validation. To test the suppressor activity of the G410H mutation, which yields increased p1 copy number, this amino acid change was added to several low-activity TP-DNAP1 variants. p1 copy number was similarly assayed for these strains.

| Molecule | Mean fold-increase over w.t. (p1 copy number) [fold] |
| --- | --- |
| B1 | 1.7 |
| B2 | 1.93 |
| B3 | 2.48 |
| B4 | 1.84 |
| B5 | 1.75 |
| B6 | 1.75 |
| B7 | 1.54 |
| B8 | 1.88 |
| B9 | 1.57 |
| B10 | 2.6 |
| B11 | 2.28 |
| B12 | 2.14 |
| B13 | 1.55 |
| B14 | 1.65 |
| B15 | 1.65 |
| B16 | 1.7 |
| B17 | 1.69 |
| B18 | 1.74 |
| B19 | 1.73 |
| B20 | 1.71 |
| B21 | 1.68 |
| B22 | 1.96 |
| B23 | 1.88 |
| B24 | 1.87 |
| B25 | 1.68 |
| B26 | 1.74 |
| B27 | 1.82 |
| B28 | 1.97 |
| B29 | 1.99 |
